Results taken from publication PMC6450946.

Assays:
[1] = target: SRM-HtrM fusion protein (H. marismortui SRM and HtrM joined by a flexible linker) expressed in H. salinarum (Haloarcula marismortui); experiment: SDS-PAGE and Western blot; lysate of transformed H. salinarum (cells lysed in distilled water, sonicated); detection with Penta-His HRP conjugate
[2] = target: HtrI, cognate transducer of SRI from Haloarcula marismortui, as part of the HmSRI-HtrI fusion protein (Haloarcula marismortui)
[3] = target: HtrM, cognate transducer of SRM from Haloarcula marismortui, as the C-terminal part of the SRM-HtrM fusion protein (Haloarcula marismortui)

SRM-HtrM fusion protein (H. marismortui SRM and HtrM joined by a flexible linker) expressed in H. salinarum
stoichiometry N [1]: 2

B1: Sensory rhodopsin I from Haloarcula marismortui, as part of the HmSRI-HtrI fusion protein (receptor)
chain: MDAVSVVYGITAAGFAVGVAIVGFLYASLEGSDERPILAALALIPGVAGISYVAMVFGIGTVTIGETTLVGFRYLDWVVTTPLLVGFIGYTAGASRRAIFGVMAADALMILAGVGAVVAAGTLKWALFGVSAVFHISLFAYLYLIFPRSVPDDPQRIGLFSLLKNHVGLLWIAYPLVWLAGPEGLGFATYVGVSITYAFLDLLAKVPYVYFFYARRQVFATKLLRDSGDTTVTPAD
Photocycle kinetics (Tau value) of detergent-solubilized HmSRI-HtrI fusion, acidic (pH 6.1-6.5) [2]: 2.38 s
Photocycle kinetics (Tau value) of detergent-solubilized HmSRI-HtrI fusion, alkaline (pH 7.6-7.9) [2]: 4.49 s

B2: Sensory rhodopsin SRM from Haloarcula marismortui, as the N-terminal part of the SRM-HtrM fusion protein (receptor)
chain: MAQEIVWYGAGAGAFFVSAVVFVWFAATRGNIRSSFYYLPPIHTSVAGAAYVAMALIAGGQLGDTVSITTLRFADWIVSTPIITYYLARLAGVDTQTRRLAVAANVVMIGVGYGFVSMSGSLRWIAFAVSTVAFIGLLYLYIKTFARKINAATASVRSLFQSLRDLTVVTWSLYPVVYFLGPLGTGIIQAPDLNFLVAVLDTIAKVGFMSILLVRYNSVETFVDSWSVAPAK
Photocycle kinetics (Tau value) of detergent-solubilized HmSRM-HtrM fusion, acidic (pH 6.1-6.5) [3]: 4.05 s
Photocycle kinetics (Tau value) of detergent-solubilized HmSRM-HtrM fusion, alkaline (pH 7.6-7.9) [3]: 5.62 s
